PMC6555819, “Comprehensive study of nuclear receptor DNA binding provides a revised framework for understanding receptor specificity”
Numbering of substitutions follows the chain as printed.

Legend:
FXR:RXRa = FXR:RXRa (Homo sapiens, UniProt Q96RI1;P19793 full;full); test: no ligand; PBM; 270 nM : 90 nM RXRa; PBS pH 7.4, 2% milk, 0.02% Triton X-100, 1 mM DTT, BSA, 0.4 mg/ml salmon testes DNA; conditions: tags: His kept;His cleaved; copies: 1;1; label: surface-attached array probe
How it was run: (§1)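 On custom Agilent 4×180K arrays, double-stranded probes with 34-nt variable regions carried direct-repeat seeds, single-nucleotide variants, half-site ablations or random human genomic background. Ligand-free nuclear receptor dimers were applied for 1 h, and binding was read with antibodies against each partner (one per run). Binding z-scores come from regression-normalized fluorescence, with the random background probes as reference.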

RARb:RXRa = RARb:RXRa (Homo sapiens, UniProt P10826;P19793 full;full); test: as above; conditions: tags: His kept;His cleaved; copies: 1;1; label: surface-attached array probe
How it was run: as §1

LXRa:RXRa = LXRa:RXRa (Homo sapiens, UniProt Q13133;P19793 full;full); test: as above; conditions: tags: His kept;His cleaved; copies: 1;1; label: surface-attached array probe
How it was run: as §1

VDR:RXRa = VDR:RXRa (Homo sapiens, UniProt P11473;P19793 full;full); test: as above; conditions: tags: His kept;His cleaved; copies: 1;1; label: surface-attached array probe
How it was run: as §1

PPARa:RXRa = PPARa:RXRa (Homo sapiens, UniProt Q07869;P19793 full;full); test: as above; conditions: tags: GST kept;His cleaved; copies: 1;1; label: surface-attached array probe
How it was run: as §1

LXRb:RXRa = LXRb:RXRa (Homo sapiens, UniProt P55055;P19793 full;full); test: as above; conditions: tags: His kept;His cleaved; copies: 1;1; label: surface-attached array probe
How it was run: as §1

RARg:RXRa = RARg:RXRa (Homo sapiens, UniProt P13631;P19793 full;full); test: as above; conditions: tags: His kept;His cleaved; copies: 1;1; label: surface-attached array probe
How it was run: as §1

RXRa = RXRa (Homo sapiens, UniProt P19793); test: no ligand; PBM; 180 nM; PBS pH 7.4, 2% milk, 0.02% Triton X-100, 1 mM DTT, BSA, 0.4 mg/ml salmon testes DNA; conditions: tags: His cleaved; chain copies: 2; label: surface-attached array probe
PXR:RXRa = PXR:RXRa (Homo sapiens, UniProt O75469;P19793 full;full); test: no ligand; PBM; 270 nM : 90 nM RXRa; PBS pH 7.4, 2% milk, 0.02% Triton X-100, 1 mM DTT, BSA, 0.4 mg/ml salmon testes DNA; conditions: tags: His kept;His cleaved; copies: 1;1; label: surface-attached array probe
How it was run: as §1

Chain of RARg:RXRa (P13631 whole entry, chain 1 of 2): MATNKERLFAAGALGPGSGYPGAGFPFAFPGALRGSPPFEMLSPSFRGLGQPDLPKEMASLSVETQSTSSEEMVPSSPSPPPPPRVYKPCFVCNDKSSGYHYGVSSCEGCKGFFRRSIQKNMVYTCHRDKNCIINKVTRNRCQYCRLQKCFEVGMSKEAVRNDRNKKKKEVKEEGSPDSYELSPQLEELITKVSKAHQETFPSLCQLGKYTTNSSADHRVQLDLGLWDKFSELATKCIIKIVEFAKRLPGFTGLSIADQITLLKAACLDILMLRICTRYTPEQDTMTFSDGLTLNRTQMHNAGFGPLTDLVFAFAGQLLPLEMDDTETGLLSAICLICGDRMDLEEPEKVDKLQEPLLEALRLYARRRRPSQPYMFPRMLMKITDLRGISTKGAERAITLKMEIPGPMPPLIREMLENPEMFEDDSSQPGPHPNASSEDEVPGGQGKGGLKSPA
Chain of RARg:RXRa (P19793 whole entry, chain 2 of 2): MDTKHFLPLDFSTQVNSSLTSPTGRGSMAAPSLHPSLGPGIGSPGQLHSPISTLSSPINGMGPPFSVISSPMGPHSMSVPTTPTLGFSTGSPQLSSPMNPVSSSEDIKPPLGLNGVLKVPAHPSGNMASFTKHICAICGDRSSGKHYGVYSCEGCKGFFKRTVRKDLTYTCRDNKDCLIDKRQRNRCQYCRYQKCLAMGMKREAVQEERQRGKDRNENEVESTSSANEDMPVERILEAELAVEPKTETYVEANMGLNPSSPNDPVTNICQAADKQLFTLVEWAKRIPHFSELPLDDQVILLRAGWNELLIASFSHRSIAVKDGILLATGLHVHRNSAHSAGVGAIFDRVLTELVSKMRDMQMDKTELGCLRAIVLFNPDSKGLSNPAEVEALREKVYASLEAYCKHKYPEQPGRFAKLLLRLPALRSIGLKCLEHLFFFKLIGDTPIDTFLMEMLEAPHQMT
Chain of LXRb:RXRa (P55055 whole entry, chain 1 of 2): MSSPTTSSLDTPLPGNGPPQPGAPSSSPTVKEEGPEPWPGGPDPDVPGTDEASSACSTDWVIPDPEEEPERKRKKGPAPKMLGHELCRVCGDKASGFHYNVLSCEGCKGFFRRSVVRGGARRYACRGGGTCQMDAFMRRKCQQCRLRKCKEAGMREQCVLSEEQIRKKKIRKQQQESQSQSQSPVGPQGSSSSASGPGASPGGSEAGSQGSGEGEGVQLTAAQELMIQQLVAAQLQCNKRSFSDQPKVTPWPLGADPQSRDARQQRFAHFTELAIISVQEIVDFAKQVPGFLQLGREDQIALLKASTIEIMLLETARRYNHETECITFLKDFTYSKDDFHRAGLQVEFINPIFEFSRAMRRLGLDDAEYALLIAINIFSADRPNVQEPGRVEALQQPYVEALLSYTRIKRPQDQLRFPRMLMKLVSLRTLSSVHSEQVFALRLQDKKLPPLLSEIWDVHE
Chain of LXRb:RXRa (P19793 whole entry, chain 2 of 2): as the sequence (P19793 whole entry, chain 2 of 2) above
Chain of RXRa (P19793 whole entry): as the sequence (P19793 whole entry, chain 2 of 2) above
Chain of VDR:RXRa (P11473 whole entry, chain 1 of 2): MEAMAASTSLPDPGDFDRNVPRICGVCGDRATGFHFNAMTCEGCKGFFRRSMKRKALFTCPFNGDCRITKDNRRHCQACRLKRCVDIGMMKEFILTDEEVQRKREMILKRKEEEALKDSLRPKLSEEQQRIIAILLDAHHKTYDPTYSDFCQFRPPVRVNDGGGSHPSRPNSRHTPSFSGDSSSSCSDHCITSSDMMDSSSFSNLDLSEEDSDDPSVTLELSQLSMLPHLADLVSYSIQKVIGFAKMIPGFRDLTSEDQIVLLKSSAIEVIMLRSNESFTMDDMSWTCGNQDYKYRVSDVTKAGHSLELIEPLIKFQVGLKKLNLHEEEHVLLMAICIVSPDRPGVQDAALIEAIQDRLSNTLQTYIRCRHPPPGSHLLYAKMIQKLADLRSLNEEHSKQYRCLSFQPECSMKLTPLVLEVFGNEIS
Chain of VDR:RXRa (P19793 whole entry, chain 2 of 2): as the sequence (P19793 whole entry, chain 2 of 2) above
Chain of RARb:RXRa (P10826 whole entry, chain 1 of 2): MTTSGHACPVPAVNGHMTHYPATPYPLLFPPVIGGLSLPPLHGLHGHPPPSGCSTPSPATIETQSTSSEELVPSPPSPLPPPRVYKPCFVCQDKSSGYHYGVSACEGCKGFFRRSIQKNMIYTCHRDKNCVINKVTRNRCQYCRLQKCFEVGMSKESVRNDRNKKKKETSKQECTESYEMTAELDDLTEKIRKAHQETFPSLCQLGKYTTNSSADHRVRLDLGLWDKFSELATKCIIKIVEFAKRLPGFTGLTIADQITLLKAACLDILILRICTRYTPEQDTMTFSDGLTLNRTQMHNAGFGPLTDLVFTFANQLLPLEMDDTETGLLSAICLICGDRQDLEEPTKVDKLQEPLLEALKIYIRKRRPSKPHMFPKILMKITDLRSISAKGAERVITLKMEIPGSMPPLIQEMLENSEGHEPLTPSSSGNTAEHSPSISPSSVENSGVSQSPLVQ
Chain of RARb:RXRa (P19793 whole entry, chain 2 of 2): as the sequence (P19793 whole entry, chain 2 of 2) above
Chain of LXRa:RXRa (Q13133 whole entry, chain 1 of 2): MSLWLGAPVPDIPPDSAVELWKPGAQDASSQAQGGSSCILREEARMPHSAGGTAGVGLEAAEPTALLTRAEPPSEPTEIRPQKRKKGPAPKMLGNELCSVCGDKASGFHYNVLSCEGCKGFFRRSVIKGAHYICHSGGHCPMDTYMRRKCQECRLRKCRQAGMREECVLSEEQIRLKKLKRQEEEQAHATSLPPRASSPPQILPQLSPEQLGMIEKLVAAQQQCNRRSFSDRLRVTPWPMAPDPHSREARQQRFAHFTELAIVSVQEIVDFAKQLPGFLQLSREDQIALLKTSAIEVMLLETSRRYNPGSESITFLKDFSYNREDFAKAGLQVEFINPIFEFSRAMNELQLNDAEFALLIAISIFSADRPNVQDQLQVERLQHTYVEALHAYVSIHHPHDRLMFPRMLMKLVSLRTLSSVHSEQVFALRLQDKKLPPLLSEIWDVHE
Chain of LXRa:RXRa (P19793 whole entry, chain 2 of 2): as the sequence (P19793 whole entry, chain 2 of 2) above
Chain of PPARa:RXRa (Q07869 whole entry, chain 1 of 2): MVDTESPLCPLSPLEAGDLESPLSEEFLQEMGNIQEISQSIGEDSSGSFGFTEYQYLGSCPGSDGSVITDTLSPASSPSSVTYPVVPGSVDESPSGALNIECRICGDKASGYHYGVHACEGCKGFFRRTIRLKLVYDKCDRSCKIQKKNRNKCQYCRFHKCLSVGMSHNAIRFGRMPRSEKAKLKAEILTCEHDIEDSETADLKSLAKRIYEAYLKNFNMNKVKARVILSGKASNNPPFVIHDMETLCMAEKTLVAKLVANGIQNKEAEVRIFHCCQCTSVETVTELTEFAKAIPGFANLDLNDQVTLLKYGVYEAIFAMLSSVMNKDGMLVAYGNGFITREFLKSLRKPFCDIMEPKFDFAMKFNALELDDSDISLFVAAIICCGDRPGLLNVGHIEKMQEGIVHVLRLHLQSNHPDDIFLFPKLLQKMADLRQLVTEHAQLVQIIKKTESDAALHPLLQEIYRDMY
Chain of PPARa:RXRa (P19793 whole entry, chain 2 of 2): as the sequence (P19793 whole entry, chain 2 of 2) above
Chain of FXR:RXRa (Q96RI1 whole entry, chain 1 of 2): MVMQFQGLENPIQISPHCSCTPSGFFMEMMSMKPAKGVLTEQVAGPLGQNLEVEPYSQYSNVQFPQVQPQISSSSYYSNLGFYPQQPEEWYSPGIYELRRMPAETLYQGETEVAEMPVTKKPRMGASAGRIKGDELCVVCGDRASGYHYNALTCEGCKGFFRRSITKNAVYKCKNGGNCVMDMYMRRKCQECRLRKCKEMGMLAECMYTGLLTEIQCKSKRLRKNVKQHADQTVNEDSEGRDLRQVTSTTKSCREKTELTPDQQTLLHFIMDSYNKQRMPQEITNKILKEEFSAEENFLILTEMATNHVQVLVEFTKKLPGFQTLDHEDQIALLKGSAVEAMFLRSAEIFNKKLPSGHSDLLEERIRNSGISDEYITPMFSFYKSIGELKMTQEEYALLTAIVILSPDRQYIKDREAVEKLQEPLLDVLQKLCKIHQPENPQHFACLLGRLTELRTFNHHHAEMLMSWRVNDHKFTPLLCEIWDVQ
Chain of FXR:RXRa (P19793 whole entry, chain 2 of 2): as the sequence (P19793 whole entry, chain 2 of 2) above
Chain of PXR:RXRa (O75469 whole entry, chain 1 of 2): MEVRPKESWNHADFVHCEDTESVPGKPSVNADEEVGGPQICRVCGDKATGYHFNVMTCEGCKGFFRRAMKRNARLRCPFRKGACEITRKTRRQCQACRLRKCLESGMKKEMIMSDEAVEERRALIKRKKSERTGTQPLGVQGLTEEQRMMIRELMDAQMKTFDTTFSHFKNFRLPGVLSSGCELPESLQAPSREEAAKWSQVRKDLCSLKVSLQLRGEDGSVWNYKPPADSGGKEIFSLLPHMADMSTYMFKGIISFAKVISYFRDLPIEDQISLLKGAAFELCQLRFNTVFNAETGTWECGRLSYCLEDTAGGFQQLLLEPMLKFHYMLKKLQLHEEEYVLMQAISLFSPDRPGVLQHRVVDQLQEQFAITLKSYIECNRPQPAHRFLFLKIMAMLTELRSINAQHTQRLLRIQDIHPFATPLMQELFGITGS
Chain of PXR:RXRa (P19793 whole entry, chain 2 of 2): as the sequence (P19793 whole entry, chain 2 of 2) above

B1: NRC3_wobSeed37_DR1_C7A_o1 (dsDNA)
DNA 1: GCCGTCAAAGGTCAAAGGTCAGTGAAGAGATGACGGGCGATTGACAGCGTAGAATGAAGG
DNA 2: CCTTCATTCTACGCTGTCAATCGCCCGTCATCTCTTCACTGACCTTTGACCTTTGACGGC
With B1 the binding signal (FXR:RXRa) was 9.14 PBM z-score against 500 random probes, the binding signal (RARb:RXRa) was 6.32 PBM z-score against 500 random probes and the binding signal (LXRa:RXRa) was 7.91 PBM z-score against 500 random probes. For the same binder, the binding signal (VDR:RXRa) was 7.1 PBM z-score against 500 random probes, the binding signal (PPARa:RXRa) was 7.54 PBM z-score against 500 random probes and the binding signal (LXRb:RXRa) was 7.7 PBM z-score against 500 random probes. For the same binder, the binding signal (RARg:RXRa) was 9.63 PBM z-score against 500 random probes and the binding signal (RXRa) was 11 PBM z-score against 500 random probes.

B2: NRC3_wobSeed37_DR1_C7T_o1 (dsDNA)
DNA 1: B1 DNA 1 with A7T
DNA 2: B1 DNA 2 with T54A
B2 was tested, and the binding signal (PXR:RXRa) was 7.41 PBM z-score against 500 random probes.

B3: NRC3_random_hg19_378_o1 (dsDNA)
DNA 1: GCATCATCTTGCGTATGTTGATTGATGTCTCATGTGGCGATTGACAGCGTAGAATGAAGG
DNA 2: CCTTCATTCTACGCTGTCAATCGCCACATGAGACATCAATCAACATACGCAAGATGATGC
In the case of B3, the binding signal (LXRa:RXRa) is reported as -0.34 PBM z-score against 500 random probes, the binding signal (LXRb:RXRa) is reported as -0.13 PBM z-score against 500 random probes and the binding signal (RARg:RXRa) is reported as 0.26 PBM z-score against 500 random probes.

B4: NRC3_wobSeed89_DR3_G16T_o1 (dsDNA)
DNA 1: GCCTATGTAGGTTAATGGGGTCATTCAGTTTGAAAGGCGATTGACAGCGTAGAATGAAGG
DNA 2: CCTTCATTCTACGCTGTCAATCGCCTTTCAAACTGAATGACCCCATTAACCTACATAGGC
B4 was tested, and the binding signal (PXR:RXRa) was 6.66 PBM z-score against 500 random probes.

B5: NRC3_wobSeed73_DR3_C7A_o1 (dsDNA)
DNA 1: GCCAAAATAGGTCACAGAGGTCAAAGTCCGTGCGTAGCGATTGACAGCGTAGAATGAAGG
DNA 2: CCTTCATTCTACGCTGTCAATCGCTACGCACGGACTTTGACCTCTGTGACCTATTTTGGC
For B5, the binding signal (FXR:RXRa) was 8.03 PBM z-score against 500 random probes, the binding signal (RARb:RXRa) was 5.84 PBM z-score against 500 random probes and the binding signal (LXRa:RXRa) was 7.23 PBM z-score against 500 random probes. The binding signal (PPARa:RXRa) was 6.98 PBM z-score against 500 random probes, the binding signal (LXRb:RXRa) was 7.08 PBM z-score against 500 random probes and the binding signal (RARg:RXRa) was 7.78 PBM z-score against 500 random probes.

B6: NRC3_random_hg19_428_o1 (dsDNA)
DNA 1: GCGAGATTGGAAGGCTTCCAGATGCAAGGCTGTGGCGCGATTGACAGCGTAGAATGAAGG
DNA 2: CCTTCATTCTACGCTGTCAATCGCGCCACAGCCTTGCATCTGGAAGCCTTCCAATCTCGC
In the case of B6, the binding signal (LXRa:RXRa) is reported as -1.14 PBM z-score against 500 random probes, the binding signal (VDR:RXRa) is reported as -1.12 PBM z-score against 500 random probes and the binding signal (LXRb:RXRa) is reported as -1.31 PBM z-score against 500 random probes.

B7: NRC3_wobSeed133_DR5_C7A_o1 (dsDNA)
DNA 1: GCCGTCAAAGGTCAATGCTAGGTCAGTGAAAGCATTGCGATTGACAGCGTAGAATGAAGG
DNA 2: CCTTCATTCTACGCTGTCAATCGCAATGCTTTCACTGACCTAGCATTGACCTTTGACGGC
With B7 the binding signal (FXR:RXRa) was 8.38 PBM z-score against 500 random probes, the binding signal (RARb:RXRa) was 6.04 PBM z-score against 500 random probes and the binding signal (LXRa:RXRa) was 6.75 PBM z-score against 500 random probes. The binding signal (PPARa:RXRa) was 6.56 PBM z-score against 500 random probes, the binding signal (LXRb:RXRa) was 6.22 PBM z-score against 500 random probes and the binding signal (RARg:RXRa) was 8.73 PBM z-score against 500 random probes. For the same binder, the binding signal (RXRa) was 8.08 PBM z-score against 500 random probes.

B8: NRC3_wobSeed82_DR3_G14A_o1 (dsDNA)
DNA 1: GCATCGAAAGGTCAACGAGGTGAGTATACACCGTTTGCGATTGACAGCGTAGAATGAAGG
DNA 2: CCTTCATTCTACGCTGTCAATCGCAAACGGTGTATACTCACCTCGTTGACCTTTCGATGC
B8 was tested, and the binding signal (FXR:RXRa) was 8.61 PBM z-score against 500 random probes, the binding signal (RARb:RXRa) was 6.1 PBM z-score against 500 random probes and the binding signal (LXRa:RXRa) was 7.22 PBM z-score against 500 random probes. For the same binder, the binding signal (VDR:RXRa) was 7.33 PBM z-score against 500 random probes, the binding signal (PPARa:RXRa) was 6.87 PBM z-score against 500 random probes and the binding signal (LXRb:RXRa) was 6.3 PBM z-score against 500 random probes. For the same binder, the binding signal (RARg:RXRa) was 7.92 PBM z-score against 500 random probes and the binding signal (RXRa) was 8.25 PBM z-score against 500 random probes.

B9: NRC3_wobSeed120_DR4_G16T_o1 (dsDNA)
DNA 1: GCCCGAGTAGGTTACTAGGGGGCATTCAGTGCGAATGCGATTGACAGCGTAGAATGAAGG
DNA 2: CCTTCATTCTACGCTGTCAATCGCATTCGCACTGAATGCCCCCTAGTAACCTACTCGGGC
B9 was tested, and the binding signal (LXRa:RXRa) was 8.51 PBM z-score against 500 random probes, the binding signal (PPARa:RXRa) was 3.42 PBM z-score against 500 random probes and the binding signal (LXRb:RXRa) was 7.83 PBM z-score against 500 random probes.

B10: NRC3_wobSeed21_DR0_T11G_o1 (dsDNA)
DNA 1: GCCGTCAAAGGTCAAGGTAACGTAACAGAAAGCAGCGCGATTGACAGCGTAGAATGAAGG
DNA 2: CCTTCATTCTACGCTGTCAATCGCGCTGCTTTCTGTTACGTTACCTTGACCTTTGACGGC
In the case of B10, the binding signal (FXR:RXRa) is reported as 9.02 PBM z-score against 500 random probes, the binding signal (RARb:RXRa) is reported as 6.57 PBM z-score against 500 random probes and the binding signal (LXRa:RXRa) is reported as 6.81 PBM z-score against 500 random probes. The binding signal (PPARa:RXRa) was 6.99 PBM z-score against 500 random probes, the binding signal (LXRb:RXRa) was 6.12 PBM z-score against 500 random probes and the binding signal (RARg:RXRa) was 7.8 PBM z-score against 500 random probes. The binding signal (RXRa) was 8.42 PBM z-score against 500 random probes.
